Test results reported in PMC7299284, “Studies in humanized mice and convalescent humans yield a SARS-CoV-2 antibody cocktail” (Science (New York, N.y.), 2020).

Target: T1, SARS-CoV-2 spike RBD (as in the cryo-EM complex with REGN10933 and REGN10987 Fabs) (SARS-CoV-2, UniProt P0DTC2)
T1 construct: also called SARS-CoV-2 RBD
Experiment: cryo-EM structure; single-particle cryo-EM of SARS-CoV-2 spike RBD bound to Fab fragments of REGN10933 and REGN10987, nominal resolution 3.9 Å
Conditions: both partners purified

B1: Fab fragment of REGN10933 (Fab, V domains shown)
VH: QVQLVESGGGLVKPGGSLRLSCAASGFTFSDYYMSWIRQAPGKGLEWVSYITYSGSTIYYADSVKGRFTISRDNAKSSLYLQMNSLRAEDTAVYYCARDRGTTMVPFDYWGQGTLVTVSS
VL: DIQMTQSPSSLSASVGDRVTITCQASQDITNYLNWYQQKPGKAPKLLIYAASNLETGVPSRFSGSGSGTDFTFTISGLQPEDIATYYCQQYDNLPLTFGGGTKVEIK
notes: also called REGN10933 Fab
binding result: binds

B2: Fab fragment of REGN10987 (Fab, V domains shown)
VH: QVQLVESGGGVVQPGRSLRLSCAASGFTFSNYAMYWVRQAPGKGLEWVAVISYDGSNKYYADSVKGRFTISRDNSKNTLYLQMNSLRTEDTAVYYCASGSDYGDYLLVYWGQGTLVTVSS
VL: QSALTQPASVSGSPGQSITISCTGTSSDVGGYNYVSWYQQHPGKAPKLMIYDVSKRPSGVSNRFSGSKSGNTASLTISGLQSEDEADYYCNSLTSISTWVFGGGTKLTVL
notes: also called REGN10987 Fab
binding result: binds
